Patent publication US20030186284A1

Molecular target: proteoglycan-type receptor-type protein tyrosine phosphatase (PTP?), mouse (mouse) (UniProt B9EKR1)
Experiment: cell-based or functional assay

UniProt B9EKR1, sequence (B9EKR1 25-2312): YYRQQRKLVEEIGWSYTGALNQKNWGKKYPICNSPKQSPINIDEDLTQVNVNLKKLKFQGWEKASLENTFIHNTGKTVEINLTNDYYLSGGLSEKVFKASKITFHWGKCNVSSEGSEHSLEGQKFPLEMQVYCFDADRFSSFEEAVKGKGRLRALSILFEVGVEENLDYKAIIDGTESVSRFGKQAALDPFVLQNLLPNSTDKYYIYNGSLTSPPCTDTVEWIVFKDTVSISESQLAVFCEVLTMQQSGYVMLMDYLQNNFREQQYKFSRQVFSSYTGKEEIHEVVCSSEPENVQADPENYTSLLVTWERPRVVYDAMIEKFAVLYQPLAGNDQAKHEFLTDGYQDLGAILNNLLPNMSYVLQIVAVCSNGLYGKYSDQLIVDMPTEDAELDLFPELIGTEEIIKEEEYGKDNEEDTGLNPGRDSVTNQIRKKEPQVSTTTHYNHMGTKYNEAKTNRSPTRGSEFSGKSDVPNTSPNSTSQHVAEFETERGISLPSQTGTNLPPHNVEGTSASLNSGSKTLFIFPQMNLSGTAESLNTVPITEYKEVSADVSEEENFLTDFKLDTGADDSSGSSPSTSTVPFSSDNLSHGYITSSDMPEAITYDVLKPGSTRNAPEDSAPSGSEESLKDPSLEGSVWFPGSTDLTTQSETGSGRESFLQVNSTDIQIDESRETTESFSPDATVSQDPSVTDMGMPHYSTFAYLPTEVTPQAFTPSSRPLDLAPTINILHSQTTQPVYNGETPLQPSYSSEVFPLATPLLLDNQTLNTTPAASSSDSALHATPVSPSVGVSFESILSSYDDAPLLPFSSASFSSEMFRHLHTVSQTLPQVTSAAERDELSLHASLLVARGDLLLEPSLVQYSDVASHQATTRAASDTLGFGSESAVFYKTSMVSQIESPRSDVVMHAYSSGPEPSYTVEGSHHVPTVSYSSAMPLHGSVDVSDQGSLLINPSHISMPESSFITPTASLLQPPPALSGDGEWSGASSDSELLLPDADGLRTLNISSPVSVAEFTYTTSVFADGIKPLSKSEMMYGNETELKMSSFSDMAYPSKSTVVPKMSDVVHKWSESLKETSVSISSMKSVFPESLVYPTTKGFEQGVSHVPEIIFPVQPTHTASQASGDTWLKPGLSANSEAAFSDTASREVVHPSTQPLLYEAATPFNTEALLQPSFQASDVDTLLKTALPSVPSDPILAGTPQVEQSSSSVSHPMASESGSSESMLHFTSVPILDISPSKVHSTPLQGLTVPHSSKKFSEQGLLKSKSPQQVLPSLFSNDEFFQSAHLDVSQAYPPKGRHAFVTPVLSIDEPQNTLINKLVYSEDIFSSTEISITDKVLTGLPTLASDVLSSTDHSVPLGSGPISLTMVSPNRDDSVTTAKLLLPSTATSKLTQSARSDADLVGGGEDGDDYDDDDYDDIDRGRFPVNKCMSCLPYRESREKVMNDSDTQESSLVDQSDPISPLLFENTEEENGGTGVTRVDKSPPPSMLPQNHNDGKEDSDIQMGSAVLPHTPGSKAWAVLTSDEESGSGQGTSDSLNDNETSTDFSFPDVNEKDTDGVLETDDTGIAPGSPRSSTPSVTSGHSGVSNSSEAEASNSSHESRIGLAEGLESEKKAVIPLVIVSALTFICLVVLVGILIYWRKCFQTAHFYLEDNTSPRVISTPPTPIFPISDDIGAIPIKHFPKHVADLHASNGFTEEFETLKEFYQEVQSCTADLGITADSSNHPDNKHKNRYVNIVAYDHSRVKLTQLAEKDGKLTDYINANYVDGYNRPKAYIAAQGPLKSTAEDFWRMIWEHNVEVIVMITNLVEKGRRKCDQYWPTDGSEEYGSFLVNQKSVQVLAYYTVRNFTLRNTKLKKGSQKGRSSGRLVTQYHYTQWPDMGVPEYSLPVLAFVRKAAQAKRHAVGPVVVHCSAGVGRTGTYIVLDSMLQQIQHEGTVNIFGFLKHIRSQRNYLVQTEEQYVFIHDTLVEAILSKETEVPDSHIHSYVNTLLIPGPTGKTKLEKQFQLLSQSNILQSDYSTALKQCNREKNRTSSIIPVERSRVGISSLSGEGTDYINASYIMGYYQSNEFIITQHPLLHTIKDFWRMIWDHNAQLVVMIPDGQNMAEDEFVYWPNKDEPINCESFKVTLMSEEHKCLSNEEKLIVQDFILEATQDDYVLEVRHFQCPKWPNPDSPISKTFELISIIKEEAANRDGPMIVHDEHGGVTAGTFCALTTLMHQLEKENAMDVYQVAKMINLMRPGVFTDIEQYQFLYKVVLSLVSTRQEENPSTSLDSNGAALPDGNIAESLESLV

VacA, a toxin of Helicobacter pylori (ligand)
epithelial damage score (EDS), wild-type (PTP?+/+) mice, VacA 0.125 mg/kg (score (scale 1-4)): 1.8
epithelial damage score (EDS), wild-type (PTP?+/+) mice, VacA 0.250 mg/kg (score (scale 1-4)): 2.2
inflammation score (IS), wild-type (PTP?+/+) mice, VacA 0.125 mg/kg (score (scale 1-4)): 1.4
inflammation score (IS), wild-type (PTP?+/+) mice, VacA 0.250 mg/kg (score (scale 1-4)): 1.4
